Article PMC5121451, “NADP-Dependent Aldehyde Dehydrogenase from Archaeon Pyrobaculum sp.1860: Structural and Functional Features” (Archaea, 2016)
One block for each molecule: values may come before it.

What was measured:
[1] = target: T1, AlDHPyr1147 (Pyrobaculum ferrireducens, UniProt G7VCG0); assay: spectrofluorimetric titration of apo form; assay type: binding
T1 construct: gene P186_1147; homotetramer
T1 sequence (G7VCG0 1-491): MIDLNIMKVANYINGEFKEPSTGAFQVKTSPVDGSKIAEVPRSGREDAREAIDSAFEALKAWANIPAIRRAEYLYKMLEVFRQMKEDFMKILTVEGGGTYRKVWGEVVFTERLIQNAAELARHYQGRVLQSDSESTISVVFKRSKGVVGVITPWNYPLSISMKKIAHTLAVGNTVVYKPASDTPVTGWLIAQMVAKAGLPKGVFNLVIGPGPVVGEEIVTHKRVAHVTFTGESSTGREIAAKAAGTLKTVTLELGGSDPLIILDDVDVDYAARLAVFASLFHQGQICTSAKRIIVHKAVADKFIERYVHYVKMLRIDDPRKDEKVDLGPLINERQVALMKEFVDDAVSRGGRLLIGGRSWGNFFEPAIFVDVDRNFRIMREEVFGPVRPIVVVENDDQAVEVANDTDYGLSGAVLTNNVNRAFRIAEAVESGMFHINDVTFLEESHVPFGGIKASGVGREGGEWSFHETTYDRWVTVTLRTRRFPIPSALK
Excerpt: spectrofluorimetric titration of apo form on AlDHPyr1147 | spectrofluorimetric titration of the apo form of AlDHPyr1147 with NADP+

[2] = target: NADP-dependent aldehyde dehydrogenase AlDHPyr1147 from archaeon Pyrobaculum sp.1860 (Pyrobaculum sp.1860); assay: SEC; gel filtration of the apo form (coenzyme removed by heating at 85°C for 10-15 min), at room temperature
[3] = target: NADP-dependent aldehyde dehydrogenase AlDHPyr1147 from archaeon Pyrobaculum sp.1860 (Pyrobaculum sp.1860); assay: SEC; gel filtration of AlDHPyr1147 as isolated (with bound coenzyme); analytical column 10/300 GL, 50 mM sodium pyrophosphate pH 8.8, 100 mM NaCl, 22°C
[4] = target: NADP-dependent aldehyde dehydrogenase AlDHPyr1147 from archaeon Pyrobaculum sp.1860 (Pyrobaculum sp.1860); assay: crystal structure; apo form, three binary complexes with coenzyme (Holo-1, Holo-2, Holo-3) and ternary complex with NADP+ and isobutyraldehyde; space group P2(1)2(1)2, eight subunits (two tetramers) per asymmetric unit
[5] = target: T1, AlDHPyr1147; assay: spectrophotometric NADPH formation at […] nm; assay type: biochemical; conditions: 0.084 μM enzyme, 0.3 mM NADP+, 9 mM isobutyraldehyde, pH 8.8, 60 °C
[6] = substrate: CC(C)C=O; assay: purified protein; conditions: 0.3 mM NADP+, 50 mM sodium pyrophosphate pH 8.8, 100 mM NaCl, 60 °C
[7] = substrate: O=C[C@H](O)CO; assay: purified protein; conditions: 0.3 mM NADP+, 50 mM sodium pyrophosphate pH 8.8, 100 mM NaCl, 60 °C
[8] = substrate: CCC=O; assay: purified protein; assay type: biochemical, Pyrobaculum ferrireducens; conditions: 0.3 mM NADP+, 50 mM sodium pyrophosphate pH 8.8, 100 mM NaCl, 60 °C
[9] = substrate: NC(=O)c1ccc[n+]([C@@H]2O[C@H](COP(=O)(O)OP(=O)(O)OC[C@H]3O[C@@H](n4cnc5c(N)ncnc54)[C@H](OP(=O)(O)O)[C@@H]3O)[C@@H](O)[C@H]2O)c1; assay: purified protein; assay type: biochemical, Pyrobaculum ferrireducens; conditions: 60 °C, isobutyraldehyde oxidation, standard assay, 50 mM sodium pyrophosphate pH 8.8, 100 mM NaCl, varied: cofactor

Molecule: NC(=O)c1ccc[n+]([C@@H]2O[C@H](COP(=O)(O)OP(=O)(O)OC[C@H]3O[C@@H](n4cnc5c(N)ncnc54)[C@H](OP(=O)(O)O)[C@@H]3O)[C@@H](O)[C@H]2O)c1 [NADP+]
- Kd [1]: 600 ± 80 nM

B1: AlDHPyr1147 (Pyrobaculum ferrireducens) (protein)
chain: T1 sequence (G7VCG0 1-491)
notes: homotetramer
- Km [6]: 0.020 ± 0.003 M
- kcat [6]: 4.1 s⁻¹
- kcat/Km [6]: 200 M⁻¹ s⁻¹
- Km [7]: 0.015 ± 0.006 M
- kcat [7]: 1.2 s⁻¹
- kcat/Km [7]: 80 M⁻¹ s⁻¹
- Km [8]: 0.021 ± 0.0025 M
- kcat [8]: 2.9 ± 0.16 s⁻¹
- kcat/Km [8]: 140 ± 30 M⁻¹ s⁻¹
- Km [9]: 20.9 ± 0.1 µM

Now from value to molecule:

- stoichiometry N [2]: 4
- stoichiometry N [3]: 4
- stoichiometry N [4]: 4
Molecule: NADP-dependent aldehyde dehydrogenase AlDHPyr1147 from archaeon Pyrobaculum sp.1860 (enzyme)

- % decrease in activity at 0.08 mM [5]: 20%
Molecule: NC(=O)C1=CN([C@@H]2O[C@H](COP(=O)(O)OP(=O)(O)OC[C@H]3O[C@@H](n4cnc5c(N)ncnc54)[C@H](OP(=O)(O)O)[C@@H]3O)[C@@H](O)[C@H]2O)C=CC1 [NADPH]
